Results: US20210386836

Molecular target: C3a, P01024
Sequence (P01024 672-748): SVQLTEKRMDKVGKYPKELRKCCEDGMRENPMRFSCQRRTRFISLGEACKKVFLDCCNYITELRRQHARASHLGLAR

B1: PrtISS-HT (protein)
chain: MRKKWVATAIIALASGSTVFLSQTSSVEAAIGETSVQNVKVSVAKNESDSQKFNNSQNLEQKTPQAAAANQNGSQVQNDHTETQLQNQQTTQSQVTQAHTEENNASSIPEPANQADHVKGNVQSAWDQGYKGQNTVVAVIDSGADTSHKDFQTMPSNPKLKQEDVQSKIDQQGYGKYVNEKFPYVYNYADRDNDYIKSDDNNQXNDSPHGQHVSGIIAADGHPEGDQQYVVGVAPEAQLMQLRVFGQFSDEKTDDVARAIYDATNLGADVIQMSLGQGVADQQLTNIEQKAVQYAIDHGVFVSISASNNGNSASVDNPSKVTAKGYGSGSEAGNYEPLNSGTVANPGASKNALTVAAETSGTGKDSDMASFSSWGPLSDFSLKPDLSAPGYQVVSTVNDNQYQTMSGTSMAGPFAAGSAALVIQRLKQTNPELKGAELVAATKALLMNSAKVQTQNGYTTPVSPRRQGAGQIDVGAATANPVYVTAADGTSSLSLRQVDEKTTFTLTFHNLTDQEQSYSFNDLGGGYTEQRDPDSGVFHEVQLAGAHVNGVGNFTLAPKEVKDLQYTLDLQGLNKNQPVEGWLHFTNDKDKSTVVVPYLAYYGDLTSENVFDQNANEEKPDIQGNRFVNENNYPLGVTDQESLKQLVNVDSDYNWQEVAKLYESGKVAFSPNDDHQSDLIKPYAYLKQNVKDLKVEILDAKGNVVRVVSDVQGVDKSYDESGVTKDASLSVSMRDNPDAFEWDGKVYDTKTGQMVTAPDGQYTYRFVATLWNEGPNQKQTADFPVVVDTQAPSLSVKYDSATHTLSGNYEDKGAGFTDYSYVTVQVNDKVFGYKLNEGESGFDNSEKTKGHFNFTLSSDALDALSGSLNKVSVTLSDVANNTTVKTVDVPAVKDQPAVSVWNATEGVEFNKNSKDYNKENDTYTLYGSAAQDFYLNGALVQVRDGKYEVPVKTTTQDLVFSTDQAGKNVLKSFTTFTPKAFFNWQNVDGFDGNFGVNIYSVKTNDPNNAVVQAAVPLGKNVKAYAQDYFTGEVYKGQVENGVATFHVHTSINQGEDGIFKRALLTGWSEVDGPAYNDKQVTSKAGVASSNHLGVYYTTDKVNRKVYTDRADLGVDVQDEAADLSSFGPTAYPGHALADLTTRTDPNPAIHFDYLNDNDTTRFGQNAVTDGYYDSVTKKFTVTGHVDPEVKSLTVLGDSSDENAPQNQVKLGKDGKFSFSFTTENVGQRPVAYIYTDQNGQKVRGTLNVVLDTVAPTLNVDQVNGNELEVKTNNPLFKLSGVVNDNLDGYRLYVNGNNIYREFLNSGYNKLAGLNTDGTDVNPYGPHNFEESFNLNDDNNQPTTHVFTIYVVDQVGNKVEKKIAVNYDPDYVAPRHHHHHH
modifications: not fully specified; X: residue not identified in the source
- proteolytic degradation assay (SDS-PAGE): displayed activity against hC3a
